Measurements as given in the supplement of paper PMC7125110.
± gives the standard error. Variants at the floor of the assay were thinned out.

B1: glmS ribozyme (parent)
chain: AUAAAAGCGCCAGAACUACAGAAAUGUAGUUGACGAGGAGGAGGUUUAUCGAAUUUUCGGCGGAUGCCUCCAAA

Columns and labels:
Conditions in all cases: with glucosamine-6-phosphate
glucosamine-6-phosphate [1] = variants of: B1; assay: self-cleavage kobs at 40 uM GlcN6P; higher = faster cleavage; RNA array
Outline: (§1)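 Barcoded ribozyme variants were transcribed in situ on sequenced MiSeq chips by E. coli RNA polymerase. At 37 °C, a hybridised Cy3 probe tracked them while glucosamine-6-phosphate (40 μM to 10 mM) in HEPES/KCl/Mg(OAc)2 buffer flowed in and tiles were imaged over ~14 h. Per-tile medians of signals normalised to baseline and to non-cleaving reference variants were fit to one- or two-exponential decays, giving kobs. kcat and KM came from weighted Michaelis–Menten fits across concentrations.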

glucosamine-6-phosphate [2] = variants of: B1; assay: self-cleavage kobs at 10000 uM GlcN6P; higher = faster cleavage; RNA array
Outline: as §1

glucosamine-6-phosphate [3] = variants of: B1; assay: self-cleavage kobs at 160 uM GlcN6P; higher = faster cleavage; RNA array
Outline: as §1

glucosamine-6-phosphate [4] = variants of: B1; assay: self-cleavage kobs at 640 uM GlcN6P; higher = faster cleavage; RNA array
Outline: as §1

glucosamine-6-phosphate [5] = variants of: B1; assay: self-cleavage kobs at 2500 uM GlcN6P; higher = faster cleavage; RNA array
Outline: as §1

Variant	self-cleavage kobs at 40 uM GlcN6P (glucosamine-6-phosphate [1]) [s⁻¹]	self-cleavage kobs at 10000 uM GlcN6P (glucosamine-6-phosphate [2]) [s⁻¹]	self-cleavage kobs at 160 uM GlcN6P (glucosamine-6-phosphate [3]) [s⁻¹]	self-cleavage kobs at 640 uM GlcN6P (glucosamine-6-phosphate [4]) [s⁻¹]	self-cleavage kobs at 2500 uM GlcN6P (glucosamine-6-phosphate [5]) [s⁻¹]
C8G A12C A15G U30G G38A U46C	< 1e-05	< 1e-05			
G7U U45G	< 1e-05	< 1e-05	< 1e-05	< 1e-05	< 1e-05
G29A G66A	7.16e-05 ± 1.8e-05	0.00305 ± 0.00076			
G13C U31G A48U	< 1e-05				
A6G C11U A33U G60U	< 1e-05	< 1e-05		< 1e-05	< 1e-05
C11U G13U U57C G62C C67A	< 1e-05				
C10U G62U	< 1e-05	< 1e-05	< 1e-05	< 1e-05	< 1e-05
U45G G62A	< 1e-05	< 1e-05		< 1e-05	< 1e-05
A12G G63A A64U	< 1e-05		< 1e-05		< 1e-05
C11G U56G A64U	< 1e-05		< 1e-05		< 1e-05
A39U G51U	< 1e-05	< 1e-05		< 1e-05	
A12C A42U A64G	< 1e-05			< 1e-05	
C11G G29C U31G G37A C68G	< 1e-05				
C8G U54G	< 1e-05				
A39C G63U	< 1e-05	< 1e-05		< 1e-05	
G7C G40C U54G G62A	< 1e-05				
U31C A39G C50U U54G C58A G60C G62U	< 1e-05	< 1e-05			
G32U G38C U55A	< 1e-05	< 1e-05		< 1e-05	
G60A G62U	< 1e-05		< 1e-05	< 1e-05	< 1e-05
G44C U65G	< 1e-05		< 1e-05	< 1e-05	
G13A U49A A64G	< 1e-05		< 1e-05	< 1e-05	
C16U G29C	0.000447 ± 6.3e-05	0.0179 ± 0.0033	0.000622 ± 9.5e-05	0.00244 ± 0.00032	0.00422 ± 0.00072
A12G U47A G60A	< 1e-05		< 1e-05	< 1e-05	
A15G U31C	0.000207 ± 3.4e-05	0.0123 ± 0.0028	0.00035 ± 8.7e-05	0.00208 ± 0.00026	0.00542 ± 0.0013
G37U A39U C70G	< 1e-05				

Variant	self-cleavage kobs at 40 uM GlcN6P (glucosamine-6-phosphate [1]) [s⁻¹]	self-cleavage kobs at 10000 uM GlcN6P (glucosamine-6-phosphate [2]) [s⁻¹]	self-cleavage kobs at 160 uM GlcN6P (glucosamine-6-phosphate [3]) [s⁻¹]	self-cleavage kobs at 640 uM GlcN6P (glucosamine-6-phosphate [4]) [s⁻¹]	self-cleavage kobs at 2500 uM GlcN6P (glucosamine-6-phosphate [5]) [s⁻¹]
G32A C50G G51A	< 1e-05				
C70A	0.000267 ± 7.7e-05	0.00384 ± 0.0011	0.000416 ± 0.00014	0.00093 ± 0.00021	0.000583 ± 4.1e-05
G38C G63U	< 1e-05				
G35C G40A	< 1e-05	< 1e-05	< 1e-05	< 1e-05	< 1e-05
G29U G41A C71G	< 1e-05				
A6G U57G	< 1e-05	< 1e-05	< 1e-05	< 1e-05	< 1e-05
A48U A53C	< 1e-05		< 1e-05		
C10G A52G	< 1e-05	< 1e-05			< 1e-05
C8U C10A C50G	9.57e-05 ± 2e-05	9.18e-05 ± 1.7e-05	0.000179 ± 2.8e-05		8.56e-05 ± 2.1e-05
C10A A14C A42C G63A	< 1e-05	< 1e-05	< 1e-05		
G32U G59U C71G	< 1e-05			< 1e-05	
G9C A53C	< 1e-05	< 1e-05	< 1e-05	< 1e-05	
A15C U30A G41C U45A C58U	< 1e-05				
C11G A48C	< 1e-05	< 1e-05			
C34A A53C	< 1e-05	< 1e-05		< 1e-05	< 1e-05
C8G C50G	0.000322 ± 0.00014	0.000242 ± 7.8e-05	0.000106 ± 2.1e-05	0.00014 ± 3.4e-05	0.000123 ± 2.4e-05
C8U G40U C70A	< 1e-05	< 1e-05			
G37U G43C G66U	< 1e-05	< 1e-05			
G38U G44A	< 1e-05	< 1e-05	< 1e-05	< 1e-05	< 1e-05
G41A U57C	< 1e-05		< 1e-05	< 1e-05	
G32U A36G G59A	< 1e-05	< 1e-05			< 1e-05
G32U A39U G60A C67U	< 1e-05	< 1e-05			
A15G C50U G60A A64C	< 1e-05				
A12U A53U	0.00177 ± 0.00024	0.112 ± 0.036	0.00421 ± 0.00071	0.0159 ± 0.0029	0.0274 ± 0.007
G7U C8A U47G G60U	< 1e-05	< 1e-05			

Variant	self-cleavage kobs at 40 uM GlcN6P (glucosamine-6-phosphate [1]) [s⁻¹]	self-cleavage kobs at 10000 uM GlcN6P (glucosamine-6-phosphate [2]) [s⁻¹]	self-cleavage kobs at 160 uM GlcN6P (glucosamine-6-phosphate [3]) [s⁻¹]	self-cleavage kobs at 640 uM GlcN6P (glucosamine-6-phosphate [4]) [s⁻¹]	self-cleavage kobs at 2500 uM GlcN6P (glucosamine-6-phosphate [5]) [s⁻¹]
G13U G29U A52G C67G	6.42e-05 ± 1.9e-05	8.86e-05 ± 1.8e-05			
A33C A64C	< 1e-05	< 1e-05	< 1e-05	< 1e-05	< 1e-05
G32U G44U	< 1e-05		< 1e-05	< 1e-05	
C8A G38U C50G	4.1e-05 ± 2e-05				
G37U U69A	< 1e-05	< 1e-05			
C8G G29U A33C C68A	< 1e-05	< 1e-05		< 1e-05	
A6C G13U A53U	< 1e-05	< 1e-05			
A64G U65A C68G	< 1e-05				
G29C A48U	< 1e-05		< 1e-05		
A12U A14U G32U	< 1e-05	8.48e-05 ± 2e-05			
G35C G62A	< 1e-05	< 1e-05	< 1e-05	< 1e-05	< 1e-05
C10U C16U U47C U65C	< 1e-05				
G13A A36U A48G C50G C61G	0.000674 ± 0.00026				
A6C G60A	< 1e-05			< 1e-05	< 1e-05
C8U G62A	< 1e-05	7.26e-05 ± 1.2e-05	< 1e-05		
A52G A53C U54A	< 1e-05				
C16U U31C G35A G41A G62U	< 1e-05			< 1e-05	
C10A U30C	< 1e-05	< 1e-05	< 1e-05	< 1e-05	< 1e-05
G37U A48U	< 1e-05	< 1e-05	< 1e-05		< 1e-05
A12C U56G C68A C70A	< 1e-05				
C34G G44U	< 1e-05	< 1e-05	< 1e-05	< 1e-05	
G9U C11A G59A A64U	< 1e-05				
G29U U30G C34U	< 1e-05	< 1e-05			
C61A G66C	< 1e-05	< 1e-05			< 1e-05
U49C G66C	< 1e-05	< 1e-05	< 1e-05	< 1e-05	

Variant	self-cleavage kobs at 40 uM GlcN6P (glucosamine-6-phosphate [1]) [s⁻¹]	self-cleavage kobs at 10000 uM GlcN6P (glucosamine-6-phosphate [2]) [s⁻¹]	self-cleavage kobs at 160 uM GlcN6P (glucosamine-6-phosphate [3]) [s⁻¹]	self-cleavage kobs at 640 uM GlcN6P (glucosamine-6-phosphate [4]) [s⁻¹]	self-cleavage kobs at 2500 uM GlcN6P (glucosamine-6-phosphate [5]) [s⁻¹]
A14G G40A A53U	0.000596 ± 0.00013	0.0182 ± 0.004			
U30G G62U	< 1e-05	< 1e-05		< 1e-05	
A36U G38C A53C	< 1e-05				
G13A U46C C67A	< 1e-05			< 1e-05	
U30C G43A	< 1e-05	< 1e-05	< 1e-05		< 1e-05
A12C A14C G60A A64C	< 1e-05				
C11G U54C C70U	< 1e-05	< 1e-05			
C8G G43U U65A C71G	< 1e-05	< 1e-05		< 1e-05	< 1e-05
G37C G59A	< 1e-05	< 1e-05	< 1e-05		
G44C C70G	< 1e-05	< 1e-05	< 1e-05	< 1e-05	< 1e-05
U30G G32A G35C A42C	< 1e-05				
U57A G59U	< 1e-05	< 1e-05	< 1e-05	< 1e-05	
A36U U55G G63A C71A	< 1e-05				
G37A U57G	< 1e-05				
G32C U47G U55G U65C U69G	0.000245 ± 8.5e-05	0.000357 ± 9.5e-05			
G41U A42U C50G	< 1e-05			< 1e-05	
U49A C58A	< 1e-05		< 1e-05	< 1e-05	
A14U G40A U56G	0.000117 ± 2.9e-05	0.00163 ± 0.00045			
A12U U31C G41A G60U	< 1e-05				
G9C A15G C50G G59C C70G	0.00011 ± 3.6e-05	0.000264 ± 5.3e-05			
G7U G37A C58U U69G	7.21e-05 ± 2.9e-05				
C34A G37U G44U	< 1e-05				
A14C C61G	< 1e-05	< 1e-05			
U45A U55C	0.000654 ± 0.00021	0.024 ± 0.0085		0.00526 ± 0.0015	0.00714 ± 0.0029
